{
  "source": "patent US20170283486A1",
  "key": {"[1]": {"target": "monomeric full length gp120 of BaL isolate (HIV-1 isolate BaL)", "test": "SPR, mAb immobilised, 1:1 Langmuir"}, "[2]": {"target": "single-chain gp120BaL-sCD4 complex (FLSC) (HIV-1 isolate BaL) (UniProt P01730)", "test": "SPR, mAb immobilised, 1:1 Langmuir"}, "[3]": {"target": "single-chain gp120BaL-sCD4 complex (FLSC) (HIV-1 isolate BaL) (UniProt P01730)", "test": "isothermal titration calorimetry, A32 IgG"}},
  "data": [
    {"substance": "mAb 2.2c (antibody)", "values": [
      {"measurement": "Kd", "setting": "[1]", "value": 12, "unit": "nM"},
      {"measurement": "koff", "setting": "[1]", "value": 0.000875, "unit": "s⁻¹"},
      {"measurement": "kon", "setting": "[1]", "value": 73000, "unit": "M⁻¹ s⁻¹"},
      {"measurement": "Kd", "setting": "[2]", "value": 0.5, "unit": "nM"},
      {"measurement": "fold change of KD, FLSC relative to gp120BaL", "setting": "[2]", "value": 24, "unit": "fold"},
      {"measurement": "fold change of ka, FLSC relative to gp120BaL", "setting": "[2]", "value": 15.7, "unit": "fold"},
      {"measurement": "fold change of kd, FLSC relative to gp120BaL", "setting": "[2]", "value": 1.6, "unit": "fold"},
      {"measurement": "koff", "setting": "[2]", "value": 0.000556, "unit": "s⁻¹"},
      {"measurement": "kon", "setting": "[2]", "value": "1.15e+06", "unit": "M⁻¹ s⁻¹"}
    ]},
    {"substance": "mAb A32 (antibody)", "values": [
      {"measurement": "Kd", "setting": "[3]", "value": 11.5, "unit": "nM"},
      {"measurement": "ΔH", "setting": "[3]", "value": -3.15, "unit": "kcal/mol"},
      {"measurement": "Kd", "setting": "[1]", "value": 3.2, "unit": "nM"},
      {"measurement": "koff", "setting": "[1]", "value": 0.000437, "unit": "s⁻¹"},
      {"measurement": "kon", "setting": "[1]", "value": 139000, "unit": "M⁻¹ s⁻¹"},
      {"measurement": "Kd", "setting": "[2]", "value": 0.23, "unit": "nM"},
      {"measurement": "fold change of KD, FLSC relative to gp120BaL", "setting": "[2]", "value": 13.9, "unit": "fold"},
      {"measurement": "fold change of ka, FLSC relative to gp120BaL", "setting": "[2]", "value": 3.2, "unit": "fold"},
      {"measurement": "fold change of kd, FLSC relative to gp120BaL", "setting": "[2]", "value": 4.3, "unit": "fold"},
      {"measurement": "koff", "setting": "[2]", "value": 0.000102, "unit": "s⁻¹"},
      {"measurement": "kon", "setting": "[2]", "value": 443000, "unit": "M⁻¹ s⁻¹"}
    ]},
    {"substance": "mAb JR4 (antibody)", "values": [
      {"measurement": "Kd", "setting": "[1]", "value": 2.34, "unit": "nM"},
      {"measurement": "koff", "setting": "[1]", "value": 0.000611, "unit": "s⁻¹"},
      {"measurement": "kon", "setting": "[1]", "value": 262000, "unit": "M⁻¹ s⁻¹"},
      {"measurement": "Kd", "setting": "[2]", "value": 0.18, "unit": "nM"},
      {"measurement": "fold change of KD, FLSC relative to gp120BaL", "setting": "[2]", "value": 13, "unit": "fold"},
      {"measurement": "fold change of ka, FLSC relative to gp120BaL", "setting": "[2]", "value": 2.5, "unit": "fold"},
      {"measurement": "fold change of kd, FLSC relative to gp120BaL", "setting": "[2]", "value": 5.3, "unit": "fold"},
      {"measurement": "koff", "setting": "[2]", "value": 0.000116, "unit": "s⁻¹"},
      {"measurement": "kon", "setting": "[2]", "value": 643000, "unit": "M⁻¹ s⁻¹"}
    ]},
    {"substance": "mAb N5-i5 (antibody)", "values": [
      {"measurement": "Kd", "setting": "[1]", "value": 5.03, "unit": "nM"},
      {"measurement": "koff", "setting": "[1]", "value": 0.00036, "unit": "s⁻¹"},
      {"measurement": "kon", "setting": "[1]", "value": 72000, "unit": "M⁻¹ s⁻¹"},
      {"measurement": "Kd", "setting": "[2]", "value": 0.29, "unit": "nM"},
      {"measurement": "fold change of KD, FLSC relative to gp120BaL", "setting": "[2]", "value": 17.3, "unit": "fold"},
      {"measurement": "fold change of ka, FLSC relative to gp120BaL", "setting": "[2]", "value": 11.5, "unit": "fold"},
      {"measurement": "fold change of kd, FLSC relative to gp120BaL", "setting": "[2]", "value": 1.5, "unit": "fold"},
      {"measurement": "koff", "setting": "[2]", "value": 0.000238, "unit": "s⁻¹"},
      {"measurement": "kon", "setting": "[2]", "value": 825000, "unit": "M⁻¹ s⁻¹"}
    ]},
    {"substance": "mAb N60-i3 (antibody)", "values": [
      {"measurement": "Kd", "setting": "[1]", "value": 2.03, "unit": "nM"},
      {"measurement": "koff", "setting": "[1]", "value": 0.000512, "unit": "s⁻¹"},
      {"measurement": "kon", "setting": "[1]", "value": 253000, "unit": "M⁻¹ s⁻¹"},
      {"measurement": "Kd", "setting": "[2]", "value": 0.25, "unit": "nM"},
      {"measurement": "fold change of KD, FLSC relative to gp120BaL", "setting": "[2]", "value": 8, "unit": "fold"},
      {"measurement": "fold change of ka, FLSC relative to gp120BaL", "setting": "[2]", "value": 4.9, "unit": "fold"},
      {"measurement": "fold change of kd, FLSC relative to gp120BaL", "setting": "[2]", "value": 1.6, "unit": "fold"},
      {"measurement": "koff", "setting": "[2]", "value": 0.000314, "unit": "s⁻¹"},
      {"measurement": "kon", "setting": "[2]", "value": "1.24e+06", "unit": "M⁻¹ s⁻¹"}
    ]}
  ]
}
